Measured values reported in US20140056902A1.

Assays:
[1] = molecular target: human BMP9 recombinant protein prepared according to Example 12 of WO 2010/126169 (N-terminal His-tagged hBMP9 complex, pLN1V5_human BMP9 vector) (human) (UniProt Q9UK05); assay: SPR (BIAcore 2000), antibody captured on anti-mouse IgG, human BMP9 recombinant protein as analyte, single cycle kinetics
[2] = molecular target: human mature dimer BMP9 recombinant protein (manufactured by R&D systems, Cat#3209-BP) (human) (UniProt Q9UK05); assay: ELISA, immobilized human BMP9 (100 ng/mL coat), biotin-labeled antibody titrated, absorbance 450-570 nm; unit ng/mL from the legend
human mature dimer BMP9 recombinant protein (manufactured by R&D systems, Cat#3209-BP) (human), sequence (Q9UK05 320-429): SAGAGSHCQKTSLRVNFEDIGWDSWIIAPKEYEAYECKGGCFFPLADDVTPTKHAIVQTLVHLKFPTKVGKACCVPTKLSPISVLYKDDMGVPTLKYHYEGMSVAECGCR

human BMP9 recombinant protein prepared according to Example 12 of WO 2010/126169 (N-terminal His-tagged hBMP9 complex, pLN1V5_human BMP9 vector) (human), sequence (Q9UK05 320-429, chain 1 of 2): as the sequence (Q9UK05 320-429) above
human BMP9 recombinant protein prepared according to Example 12 of WO 2010/126169 (N-terminal His-tagged hBMP9 complex, pLN1V5_human BMP9 vector) (human), sequence (Q9UK05 23-319, chain 2 of 2): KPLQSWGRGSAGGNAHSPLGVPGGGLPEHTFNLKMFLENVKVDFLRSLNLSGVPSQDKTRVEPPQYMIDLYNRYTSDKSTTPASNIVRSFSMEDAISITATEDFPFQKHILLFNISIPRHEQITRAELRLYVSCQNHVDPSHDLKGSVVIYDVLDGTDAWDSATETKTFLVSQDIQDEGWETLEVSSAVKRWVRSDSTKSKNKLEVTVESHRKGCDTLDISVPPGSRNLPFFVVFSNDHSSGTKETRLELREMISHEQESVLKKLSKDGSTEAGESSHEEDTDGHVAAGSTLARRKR

- Kd [1]: 0.616 nM
- Relative binding affinity (to R&D antibody) [1]: 1 fold
- EC50 (read off the curve) [2]: 10 ng/mL
Substance: anti-human BMP9 mouse monoclonal antibody (manufactured by R&D systems, clone No. 360107)
